Experimental data taken from publication PMC8529494, “KAT6A Acetylation of SMAD3 Regulates Myeloid‐Derived Suppressor Cell Recruitment, Metastasis, and Immunotherapy in Triple‐Negative Breast Cancer” (Advanced Science, 2021).

Target: T1, (His)6-TRIM24 (UniProt O15164 1-1050)
T1 construct: Tripartite motif-containing 24 (TRIM24); also called tripartite motif-containing 24; source: recombinant, purified
T1 sequence (looked up): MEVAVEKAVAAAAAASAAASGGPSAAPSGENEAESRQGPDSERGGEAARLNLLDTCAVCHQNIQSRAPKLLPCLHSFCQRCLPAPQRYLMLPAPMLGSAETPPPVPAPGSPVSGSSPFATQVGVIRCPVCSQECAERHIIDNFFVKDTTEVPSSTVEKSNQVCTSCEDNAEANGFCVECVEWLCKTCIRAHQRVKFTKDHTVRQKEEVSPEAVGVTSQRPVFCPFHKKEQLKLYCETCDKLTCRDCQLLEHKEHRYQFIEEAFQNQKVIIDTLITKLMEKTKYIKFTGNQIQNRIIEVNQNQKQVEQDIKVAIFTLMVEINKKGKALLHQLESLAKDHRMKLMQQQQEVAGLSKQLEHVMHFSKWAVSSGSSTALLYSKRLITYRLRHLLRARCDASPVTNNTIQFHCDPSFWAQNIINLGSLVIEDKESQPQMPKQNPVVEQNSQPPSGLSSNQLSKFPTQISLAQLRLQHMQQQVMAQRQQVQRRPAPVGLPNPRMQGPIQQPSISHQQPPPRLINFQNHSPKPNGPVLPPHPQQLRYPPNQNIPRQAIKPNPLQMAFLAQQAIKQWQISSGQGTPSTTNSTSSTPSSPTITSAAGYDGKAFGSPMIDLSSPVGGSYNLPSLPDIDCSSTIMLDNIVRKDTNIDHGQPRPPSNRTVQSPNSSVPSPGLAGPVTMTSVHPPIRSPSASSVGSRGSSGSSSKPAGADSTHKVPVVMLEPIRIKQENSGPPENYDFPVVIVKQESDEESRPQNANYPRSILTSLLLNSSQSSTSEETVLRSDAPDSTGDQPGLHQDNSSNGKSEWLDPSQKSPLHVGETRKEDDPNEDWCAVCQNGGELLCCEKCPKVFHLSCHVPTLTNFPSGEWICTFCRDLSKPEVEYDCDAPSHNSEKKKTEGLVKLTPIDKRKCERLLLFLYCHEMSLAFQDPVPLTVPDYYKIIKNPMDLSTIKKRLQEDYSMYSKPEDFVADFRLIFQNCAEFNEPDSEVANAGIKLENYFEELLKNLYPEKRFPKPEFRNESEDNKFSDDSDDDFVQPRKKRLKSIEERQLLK
Test: pull-down; GST pull-down with purified GST-SMAD3 and (His)6-TRIM24, western blot with anti-TRIM24 and anti-SMAD3
Conditions: both partners purified

B1: GST-SMAD3 (natural protein, UniProt P84022 1-425, looked up)
chain: MSSILPFTPPIVKRLLGWKKGEQNGQEEKWCEKAVKSLVKKLKKTGQLDELEKAITTQNVNTKCITIPRSLDGRLQVSHRKGLPHVIYCRLWRWPDLHSHHELRAMELCEFAFNMKKDEVCVNPYHYQRVETPVLPPVLVPRHTEIPAEFPPLDDYSHSIPENTNFPAGIEPQSNIPETPPPGYLSEDGETSDHQMNHSMDAGSPNLSPNPMSPAHNNLDLQPVTYCEPAFWCSISYYELNQRVGETFHASQPSMTVDGFTDPSNSERFCLGLLSNVNRNAAVELTRRHIGRGVRLYYIGGEVFAECLSDSAIFVQSPNCNQRYGWHPATVCKIPPGCNLKIFNNQEFAALLAQSVNQGFEAVYQLTRMCTIRMSFVKGWGAEYRRQTVTSTPCWIELHLNGPLQWLDKVLTQMGSPSIRCSSVS
notes: SMAD3; also called recombinant GST-SMAD3; source: recombinant, purified
B1: binds.
